Assay results from article PMC4498735, “Fibulin-1C, C1 Esterase Inhibitor and Glucose Regulated Protein 75 Interact with the CREC Proteins, Calumenin and Reticulocalbin” (PLoS ONE, 2015).
Each block holds one binder with its values, some of them ahead of it.

Experiments:
Conditions in all cases: both partners purified
GST-fibulin-1C [1] = biological target: T1, GST-fibulin-1C (UniProt P23142-4 33-683); test: SPR; reticulocalbin immobilised; buffer with EDTA (10 mM Hepes, 150 mM NaCl, 20 mM EDTA and 0.005% Tween 20 pH 7.4)
T1 construct: fibulin-1C, amino acids 33-683, cloned into pGEX-4T3; the C variant has 683 amino acids; also called recombinant GST-fibulin-1C; source: E. coli, purified (glutathione-sepharose, Superdex 200)
T1 sequence (looked up): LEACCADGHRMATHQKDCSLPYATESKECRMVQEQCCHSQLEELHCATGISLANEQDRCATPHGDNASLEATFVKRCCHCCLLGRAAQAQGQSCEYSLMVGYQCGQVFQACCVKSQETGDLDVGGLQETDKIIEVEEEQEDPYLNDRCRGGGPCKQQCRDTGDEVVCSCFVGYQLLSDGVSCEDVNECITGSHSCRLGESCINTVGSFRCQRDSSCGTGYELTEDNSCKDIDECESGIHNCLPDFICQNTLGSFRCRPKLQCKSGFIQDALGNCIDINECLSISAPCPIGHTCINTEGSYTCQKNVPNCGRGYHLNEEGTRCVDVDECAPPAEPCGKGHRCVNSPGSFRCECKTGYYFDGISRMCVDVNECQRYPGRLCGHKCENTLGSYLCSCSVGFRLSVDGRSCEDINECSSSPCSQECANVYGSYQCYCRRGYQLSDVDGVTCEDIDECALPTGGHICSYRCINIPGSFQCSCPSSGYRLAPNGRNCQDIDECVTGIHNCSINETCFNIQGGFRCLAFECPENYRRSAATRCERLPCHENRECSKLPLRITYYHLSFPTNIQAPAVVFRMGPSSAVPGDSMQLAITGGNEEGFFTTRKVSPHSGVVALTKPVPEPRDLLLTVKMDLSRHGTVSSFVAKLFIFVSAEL

[2] = biological target: T2, recombinant GST-grp75 (AAH00478.1) (human, UniProt P38646 47-679); test: SPR; Biacore 2000/3000, CM5 chip, calumenin, GST-calumenin, reticulocalbin or GST amine-coupled; 25°C; 10 mM HEPES, 150 mM NaCl, 5 mM CaCl2, 1 mM EGTA, 0.005% Tween 20, pH 7.4; 1:1 Langmuir model; apparent KD from koff/kon
T2 construct: also called glucose regulated protein 75; mortalin; source: bought: Abnova (Taipei, Taiwan)

GST-fibulin-1C [3] = biological target: T1, GST-fibulin-1C; test: as above
[4] = biological target: T3, C1 esterase inhibitor (commercial, Calbiochem) (UniProt P05155 23-500); test: as above
T3 construct: source: bought: Calbiochem
T3 sequence (looked up): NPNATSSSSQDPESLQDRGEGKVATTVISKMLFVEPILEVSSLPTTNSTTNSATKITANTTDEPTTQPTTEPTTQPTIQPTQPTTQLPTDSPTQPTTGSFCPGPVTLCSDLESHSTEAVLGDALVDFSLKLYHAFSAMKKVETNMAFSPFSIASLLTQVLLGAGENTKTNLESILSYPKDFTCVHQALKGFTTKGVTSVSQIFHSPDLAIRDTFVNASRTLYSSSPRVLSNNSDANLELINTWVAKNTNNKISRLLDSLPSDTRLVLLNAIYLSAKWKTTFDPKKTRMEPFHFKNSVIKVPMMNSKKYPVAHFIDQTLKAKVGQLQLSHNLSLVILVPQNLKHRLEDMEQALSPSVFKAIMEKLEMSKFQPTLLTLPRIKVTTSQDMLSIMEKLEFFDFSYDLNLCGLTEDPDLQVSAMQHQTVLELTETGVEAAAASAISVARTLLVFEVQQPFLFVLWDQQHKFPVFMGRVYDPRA

T2 sequence (P38646 47-679): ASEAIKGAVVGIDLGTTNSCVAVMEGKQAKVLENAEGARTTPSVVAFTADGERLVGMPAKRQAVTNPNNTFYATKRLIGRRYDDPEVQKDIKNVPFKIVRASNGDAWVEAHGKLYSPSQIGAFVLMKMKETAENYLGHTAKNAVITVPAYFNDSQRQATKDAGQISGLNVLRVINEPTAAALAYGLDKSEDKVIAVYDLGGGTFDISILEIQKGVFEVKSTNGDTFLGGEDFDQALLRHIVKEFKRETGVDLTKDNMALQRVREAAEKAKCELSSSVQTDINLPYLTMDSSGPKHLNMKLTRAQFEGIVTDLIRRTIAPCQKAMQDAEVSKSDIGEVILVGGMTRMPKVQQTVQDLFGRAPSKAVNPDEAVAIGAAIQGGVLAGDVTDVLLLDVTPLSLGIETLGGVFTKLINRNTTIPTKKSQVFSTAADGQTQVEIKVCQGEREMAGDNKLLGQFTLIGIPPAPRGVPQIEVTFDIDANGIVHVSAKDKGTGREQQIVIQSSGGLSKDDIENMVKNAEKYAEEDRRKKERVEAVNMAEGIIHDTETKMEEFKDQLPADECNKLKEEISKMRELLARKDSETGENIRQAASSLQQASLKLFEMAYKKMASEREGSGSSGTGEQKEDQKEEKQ

- Kd (GST-fibulin-1C [1]): ~50 nM
- Kd [2]: ~3 nM
- Kd (GST-fibulin-1C [3]): ~60 nM
- Kd [4]: ~1000 nM
B1: recombinant reticulocalbin (natural protein)
chain: KPTVRKERVVRPDSELGERPPEDNQSFQYDHEAFLGKEDSKTFDQLSPDESKERLGKIVDRIDSDGDGLVTTEELKLWIKRVQKRYIYDNVAKVWKDYDRDKDEKISWEEYKQATYGYYLGNPAEFHDSSDHHTFKKMLPRDERRFKASDLDGDLTATREEFTAFLHPEEFEHMKEIVVLETLEDIDKNGDGFVDQDEYIADMFSHEDNGPEPDWVLSEREQFNDFRDLNKDGKLDKDEIRHWILPQDYDHAQAEARHLVYESDKNKDEMLTKEEILDNWNMFVGSQATNYGEDLTKNHDEL
modifications: Expressed in E. coli as a GST fusion; GST removed with thrombin. Species and limits are not printed: mouse is inferred because the plasmid came from Dr. Ozawa, whose original reticulocalbin clone was

- Kd (GST-fibulin-1C [3]): ~50 nM
- Kd [4]: ~150 nM
B2: GST-calumenin (natural protein, UniProt O43852 20-315, looked up)
chain: KPTEKKDRVHHEPQLSDKVHNDAQSFDYDHDAFLGAEEAKTFDQLTPEESKERLGKIVSKIDGDKDGFVTVDELKDWIKFAQKRWIYEDVERQWKGHDLNEDGLVSWEEYKNATYGYVLDDPDPDDGFNYKQMMVRDERRFKMADKDGDLIATKEEFTAFLHPEEYDYMKDIVVQETMEDIDKNADGFIDLEEYIGDMYSHDGNTDEPEWVKTEREQFVEFRDKNRDGKMDKEETKDWILPSDYDHAEAEARHLVYESDQNKDGKLTKEEIVDKYDLFVGSQATDFGEALVRHDEF
notes: source: E. coli, purified (glutathione-sepharose, Superdex 200)

- Kd [2]: ~7 nM
B3: recombinant calumenin (immobilised; construct not told) (natural protein, UniProt O43852 20-315, looked up)
chain: B2 chain
notes: calumenin; also called immobilised calumenin; source: E. coli, purified
